The series in a line: soluble on expression in E. coli; label from the status in PepcDB or PDB records.
Turning to “MGSDKIHHHHHHMNVLALDTSQRIRIGLRKGEDLFEISYTGEKKHAEILPVVVKKLLDELDLKVKDLDVVGVGIGPGGLTGLRVGIATVVGLVSPYDIPVAPLNSFEMTAKSCPADGVVLVARRARKGYHYCAVYLKDKGLNPLKEPSVVSDEELEEITKEFSPKIVLKDDLLISPAVLVEESERLFREKKTIHYYEIEPLYLQKSIAELNWEKKKRG”, the “soluble on expression in E. coli” value is on record as “soluble”.
For the sequence “MVEMAATGYPVLILKEGTQRTYGREALRANILAARVLAEMLKSSLGPRGLDKMLVDAFGDITVTNDGATIVKEMEIQHPAAKLLVEVAKAQDAEVGDGTTSVVVLAGALLEKAEKLLDENLHPTIIIEGYTKAMEEALRLVDEAAVPVEVEDDSVLRRIAETTLASKFVGTGPERDKIISMVIDAIRTVAEKRPDGGYEVDLDYVKIEKKKGGSLLDSKLVRGIVLDKEVVHPAMPKRVENAKILVLDAPLEVQKPELTTKIRVTDIEKLESFLEEETRMLRDMVEKIAATGANVVITQKGIDEVAQHFLAKKGILAVRRVKRSDIEKVAKATGAKIVTSLRDLKPEYLGYAELVEERKVGEDKMVFIEGAKNPKSVTILLRGANDMLLDEAERNIKDALHGLRNILREPKIVGGGGAVEVELALKLKEFARTVGGKQQLAIEAYAEALETIPTVLAESAGMDALEALLKLRSLHSQGYKFAGVNVLEGKIEEDMTKINVYEPVLVKKQVIKSASEAAISILKIDDVIAAAPPKKKEKKGKTGEEEEEEGGGSKFEF”, the “soluble on expression in E. coli” value is “soluble”.
For the sequence “MELSPVFARRLYLALLVESLERPNVPKLIEKTGWPRRTIQDVIKAMPGIGIELNFVQDGRRHNDGYYQLSDWGPFDSQWVTERKKDIAASLGFCA”, the “soluble on expression in E. coli” value is given as “not soluble”.
The same measure for “MGSDKIHHHHHHMLEPQDQKKLDELFSSMQEANGCFLGYPFAKDFDYEPLWRFMSLTGNNLGDPFEPGTYRVNSHAFECDVVDFFARLFRACSCEVWGYVTNGGTEGNIYGLYLARELYPNAVAYFSQDTHYSVSKGVRLLRLEHSVVRSQSNGEINYDDLAQKATRYRTRPAVVVANIGTTMKEGKDDTLKIRAVLHDVGISAIYVHSDAALCGPYAPLLNPKPAFDFADGADSITLSGHKFLGAPMPCGVVLSHKLHVQRVMRNIDYIGSSDTTLSGSRNAFTPIILWYAIRSLGIEGIKQTFQQCERLAAYTADELNVRGVSAWRNPNALTVVLPPVEDSIKTKWQIATQDVSHLVVTPGTTKQQADALIETISNRNR”: “not soluble”; for “MRPNLRFYVQTINDIVKTTEDIGEVMNPYYEEVRQAIDKNKVNDLTAERIAEIQAKFKEGTEKYELMLKKVGTLKPTPQVLGIHKKFQHAYTEYVAGCNEMILATDPETGIDADLFNASEEKQDQATDELTFAITRMSNILLKK”: “not soluble”.
On to “MDQTIHHQIQQALHFRTAVRVYKEEKISDEDLALILDAAWLSPSSIGLEGWRFVVLDNKPIKEEIKPFAWGAQYQLETASHFILLIAEKHARYDSPAIKNSLLRRGIKEGDGLNSRLKLYESFQKEDMDMADNPRALFDWTAKQTYIALGNMMMTAALLGIDTCPIEGFHYDKVNHILAKHNVIDLEKEGIASMLSLGYRLRDPKHAQVRKPKEEVISVVK”, for which the “soluble on expression in E. coli” value is “soluble”.
Regarding “MSTPIPPSSPPSTPTTRANNRTKSFSGTGTVATTACICGNVPIALSANTLADSLKVSPLYKQQDSARWNAAAQVYRTSRAVSPTLEEKEKFGFDNAYINQMISPKMSIPKTPISLEEIADMNRKRHEVEGGVIPSDDDVGPLELEAIAAVHELAHEVQDISVSEMLPRTSDLIFVNVKTQEGSPYTLELTMKGWRIASSHTDCMNGDYTKISLHTKYYRNARELLKFISPDHATRFNECVAQKLSKLAEVAVQ”, the “soluble on expression in E. coli” value was “not soluble”.
Turning to “SLAQLDKNDPARGVLAAIAANASKIAEYDPRVRADEYDSVHQMRVATRELRSHLQTFEGILGGEDYLNLEKELKVLANILGRARDAEVVEERLSNLINTEVGDSIEEETKKELLEDLGAEYRREHERVVRALDNDRYTDLLQALENLLVDPPLITEVEEPEATEAPESAETTESTDVSEATEEADAEAESVEEATEQEESADAPESADLDALDEEYSPGSQAPVEEPKEPKKVDAALVLLEHLDKAHVKLVKLEKKARSQWDDLSIPMLEREENFHNLRKAAKKLRYSAEAVGKATTVETKKLYKACSGLQSVLGDYQDAITSRNELLRRAQVARRQGRDTFAYGILYQHEQTLSREYLTGYSDAFKSVEKAYAKLAEDTAKRSKKNKRK”, the “soluble on expression in E. coli” value is reported as “soluble”.
For “MNEQWLEHLPLKDIKEISPVSGGDVNEAYRVETDTDTFFLLVQRGRKESFYAAEIAGLNEFERAGITAPRVIASGEVNGDAYLVMTYLEEGASGSQRQLGQLVAQLHSQQQEEGKFGFSLPYEGGDISFDNHWQDDWCTIFVDKRLDHLKDELLNRGLWDANDIKVYDKVRRQIVAELEKHQSKPSLLHGDLWGGNYMFLKDGRPALFDPAPLYGDREFDIGITTVFGGFTSEFYDAYNKHYPLAKGASYRLEFYRLYLLMVHLLKFGEMYRDSVAHSMNKILQDTTSLEHHHHHH” the value was “not soluble”; for “MKKIGIIGGTTPESTLYYYKKYIEISREKFEKYFYPELIIYSINFKEFFQNPEGWEGRKKILINAAKALERAGAELIAFAANTPHLVFDDVQREVNVPMVSIIDAVAEEILKRGVRKVLLLGTKTTMTADFYIKTLEEKGLEVVVPNDEEKEELNRIIFEELAFGNLKNKEWIVRLIEKYRESEGIEGVILGCTELPLAIKQGDVSVEVFDSAEIHMRKLIELASE”, “soluble”; for “MRTLGLDLGTKTLGVAVSDELGLTAQGLETIAIDTERGDYGLKRLRAIIDEYGVDTIVVGWPKNMNGTLGPRAEASERFAAKLREEFSLPVVLRDERLSTMAAERMLIAADVSRKKRRKVIDKMAAAVILQSYLDSKR”, “not soluble”.
The same measure for “MGSDKIHHHHHHMWGFPRAGSSPALGTSRKRRSFLRFFLEENGVKEIELFGTKVLSGTRREFLNAIEERIEKNIKTFVVTMNASILLKAIEDAGYRAIVNSADLVVPDGFGVVWAMKTLTGETTERLPGVEIMKHLCERSKEKGWKVYLLGTKREIVEKAKQVLERSGVRVVGCHDGFFSEKESPKIVEDVNRSSTDLLFVGMGVPRQEEWIYRNFPQLNVKLAMGVGGSIDVVSGKKKRAPEWVQRMNLEWLYRFFQSPLSKRKVPVQVSKFVFFVLREKLKNRN”: “not soluble”.
In the case of “MKEYIAFDIGGTQIKYGIVSEIGRVLKRQTVATEIHLGGEQIIQKLIYVSKKIMNEHTITGIGISTAGIVDINKGIVTGGADHIPGYSTIPIIDRLQEILKVPVSIDNDVNCAAFGEKWNGSGREKDNFIMLTLGTGIGGAIFIDGKLYRGHSFSAGEWGNMLIEEKTFEEVASISGLIRLVSKYKGKGKWNGKRIFELYDKGDREVAQAVGIFFKHLAIGISNLAYIFNPETIIIGGGITDRGNEFLKEVKEEVSKYLNQEIYNNCEIELAQNGNCAGMIGAIYHFLHHHK”, the “soluble on expression in E. coli” value is recorded as “not soluble”.
“MPLEASELKPTAGPLEASELKPTAGPLEASELKPTAGPLEASELKPTAGPLEASELKPTAGPLEASELKPTAGPLEASELKPTAGMKKNSYLLSCLAIAVSSACHAEVLTYPDPLGSSQSDFGGTGLLQMPNARIAPEGEFSVNYRDNDQYRFYSTSVALFPWLEGTIRYTDVRTRKYSQWEDFSGDQSYKDKSFDFKLRLWEEGYWLPQVAFGKRDIAGTGLFDGEYLVASKQAGPFDFTLGMAWGYAGNAGNITNPFCRVSDKYCHRAESHDAGDISFSDIFRGPASIFGGIEYQTPWNPLRLKLEYDGNNYQNDFAGKLPQASHFNVGAVYRAASWADLNLSYERGNTLMFGFTLRTNFNDLRPALRDTPKPAYQPAPESEGLQYTTVANQLTALKYNAGFDAPEIQLRDKTLYMSGQQYKYRDSREAVDRANRILVNNLPQGVEKISVTQKREHMAMVTTETDVASLRKQLAGTAPGQSEPLQQQRVEAEDLSAFGRGYRIREDRFSYSFNPTLSQSLGGPEDFYMFQLGLMSSARYWFTDHLLLDGGIFTNIYNNYDKFKSSLLPADSTLPRVRTHIRDYVRNDVYLNNLQANYFADLGNGFYGQVYGGYLETMYAGVGSELLYRPLDACWALGVDVNYVKQRDWDNMMRFTDYSTPTGFVTAYWNPPTLNGVLMKLSVGQYLAKDKGATIDVAKRFDSGVAVGVWAAISNVSKDDYGEGGFSKGFYISIPFDLMTIGPNRNRAVVSWTPLTRDGGQMLSRKYQLYPMTAEREVPVGQLEHHHHHH”: the “soluble on expression in E. coli” value was “not soluble”.

For the origin of these results see the DeepSol protein solubility set.
